{"source": "paper PMC9896561", "target": "T1, T4 DNA ligase (T4DL) (UniProt P00970 1-487)", "T1 sequence": "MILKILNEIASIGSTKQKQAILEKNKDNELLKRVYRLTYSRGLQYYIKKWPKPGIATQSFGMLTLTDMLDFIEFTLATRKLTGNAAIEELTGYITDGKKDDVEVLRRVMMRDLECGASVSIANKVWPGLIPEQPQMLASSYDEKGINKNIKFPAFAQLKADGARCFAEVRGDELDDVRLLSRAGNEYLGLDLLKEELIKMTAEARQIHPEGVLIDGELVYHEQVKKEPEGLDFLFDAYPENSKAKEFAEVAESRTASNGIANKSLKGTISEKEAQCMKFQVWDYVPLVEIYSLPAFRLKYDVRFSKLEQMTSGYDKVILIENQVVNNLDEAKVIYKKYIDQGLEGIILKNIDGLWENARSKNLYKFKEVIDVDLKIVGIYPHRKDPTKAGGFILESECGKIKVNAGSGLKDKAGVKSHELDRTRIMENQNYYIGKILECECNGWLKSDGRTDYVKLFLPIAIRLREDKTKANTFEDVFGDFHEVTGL", "test": "fluorescence anisotropy"}
{"binder": "DAS1M (structured_DNA, 5' phosphate) DNA: ATCTCGACTAGTCAGTCTCCCCAGCTAAAAAAAAAAAAAGTTGGGGAAAAAAAAAATCCGAATGTCTCGGAT", "values": [{"measurement": "Kd", "value": "1270 ± 300", "unit": "nM"}]}
